Measurements: US20210130436A1
“And” between values parts separate entries of the source, which are not always exact repeats. Identical values can stand only once. Blank lines part the entries; values can stand above or below the substance they belong to.

Columns and labels:
human CTLA-4 (human) [1] = target: human CTLA-4 (human) (UniProt P16410); assay: flow cytometry, CHO cells stably expressing CTLA4
CD226 = CD226 (UniProt Q15762); assay: flow cytometry, protein at 25 nM on cells expressing CD226
Chain of CD226 (Q15762 19-336): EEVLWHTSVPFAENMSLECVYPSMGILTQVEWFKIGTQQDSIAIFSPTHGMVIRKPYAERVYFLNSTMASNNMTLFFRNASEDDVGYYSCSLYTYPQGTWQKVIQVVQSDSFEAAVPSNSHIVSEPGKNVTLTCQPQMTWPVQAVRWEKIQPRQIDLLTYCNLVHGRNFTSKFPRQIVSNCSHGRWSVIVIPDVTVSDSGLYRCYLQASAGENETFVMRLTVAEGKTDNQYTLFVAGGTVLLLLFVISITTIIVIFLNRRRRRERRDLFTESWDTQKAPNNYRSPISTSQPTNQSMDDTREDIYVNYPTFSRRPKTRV

CD112R [2] = target: CD112R (UniProt Q6DKI7); assay: flow cytometry, protein at 25 nM on cells expressing CD112R
Target sequence in this assay (Q6DKI7 41-326 limits assumed, form in doubt): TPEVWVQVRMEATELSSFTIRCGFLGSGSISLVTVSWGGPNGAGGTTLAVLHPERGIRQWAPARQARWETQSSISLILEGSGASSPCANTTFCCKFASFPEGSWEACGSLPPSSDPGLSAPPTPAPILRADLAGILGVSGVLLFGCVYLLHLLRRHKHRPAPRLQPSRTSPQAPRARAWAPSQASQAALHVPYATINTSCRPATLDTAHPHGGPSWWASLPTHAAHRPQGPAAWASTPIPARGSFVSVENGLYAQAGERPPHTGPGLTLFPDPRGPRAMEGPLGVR

CD28 (human) = CD28 (human) (UniProt P10747); assay: flow cytometry, Jurkat/IL2 reporter cells (endogenous CD28), 33.3 nM, PE anti-human Fc
[3] = target: PD-L1 expressed on CHO/OKT3/PD-L1 artificial antigen presenting cells (human) (UniProt Q9NZQ7); assay: cell-based or functional assay
Chain of PD-L1 expressed on CHO/OKT3/PD-L1 artificial antigen presenting cells (human) (Q9NZQ7 19-290): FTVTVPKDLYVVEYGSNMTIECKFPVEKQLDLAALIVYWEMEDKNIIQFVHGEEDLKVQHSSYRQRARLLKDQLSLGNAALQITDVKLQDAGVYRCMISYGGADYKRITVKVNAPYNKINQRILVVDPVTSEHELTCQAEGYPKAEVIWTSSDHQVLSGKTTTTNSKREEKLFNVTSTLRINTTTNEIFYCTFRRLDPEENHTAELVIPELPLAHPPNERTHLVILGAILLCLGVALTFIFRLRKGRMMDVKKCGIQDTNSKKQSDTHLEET

[4] = target: human CD28, full-length, expressed on transfected HEK293 (Expi293F) cells (human) (UniProt P10747); assay: flow cytometry, Fc control on HEK293 cells transfected with full-length human CD28
[5] = target: human CTLA4, full-length, expressed on transfected HEK293 (Expi293F) cells (human) (UniProt P16410); assay: flow cytometry, Fc control on HEK293 cells transfected with full-length human CTLA4
Chain of human CTLA4, full-length, expressed on transfected HEK293 (Expi293F) cells (human) (P16410 36-223): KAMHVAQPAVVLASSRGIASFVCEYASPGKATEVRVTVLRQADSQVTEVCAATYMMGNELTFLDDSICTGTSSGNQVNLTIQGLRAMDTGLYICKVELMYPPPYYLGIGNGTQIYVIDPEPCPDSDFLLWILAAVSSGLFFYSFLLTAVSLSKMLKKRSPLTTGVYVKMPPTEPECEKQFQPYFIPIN

[6] = target: human PD-L1, full-length, expressed on transfected HEK293 (Expi293F) cells (human) (UniProt Q9NZQ7); assay: flow cytometry, Fc control on HEK293 cells transfected with full-length human PD-L1
Chain of human PD-L1, full-length, expressed on transfected HEK293 (Expi293F) cells (human) (Q9NZQ7 19-290): as the sequence (Q9NZQ7 19-290) above

[7] = target: PD-1 (Homo sapiens (Human)) (UniProt Q15116); assay: flow cytometry on Jurkat/PD-1 cells, 50 nM
Chain of PD-1 (Homo sapiens (Human)) (Q15116 21-288): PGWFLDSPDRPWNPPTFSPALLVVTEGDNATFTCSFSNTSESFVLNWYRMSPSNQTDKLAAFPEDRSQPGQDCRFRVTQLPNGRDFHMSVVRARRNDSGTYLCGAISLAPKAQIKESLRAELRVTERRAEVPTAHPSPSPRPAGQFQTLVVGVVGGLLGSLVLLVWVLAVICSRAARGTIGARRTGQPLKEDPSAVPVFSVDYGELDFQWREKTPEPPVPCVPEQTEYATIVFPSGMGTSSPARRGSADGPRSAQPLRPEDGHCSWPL

PD-L1 (human) [8] = target: PD-L1 (human) (UniProt Q9NZQ7); assay: cell-based or functional assay
Chain of PD-L1 (human) (Q9NZQ7 19-290): as the sequence (Q9NZQ7 19-290) above

PD-L1 (human) [9] = target: PD-L1 (human) (UniProt Q9NZQ7); assay: flow cytometry, CHO cells stably expressing PD-L1
PD-L1 (human) [10] = target: PD-L1 (human) (UniProt Q9NZQ7); assay: flow cytometry, CHO cells stably expressing huPD-L1, 33.3 nM, PE anti-human Fc
TIGIT [11] = target: T1, TIGIT (UniProt Q495A1); assay: flow cytometry on cells expressing TIGIT, Fc fusion at 100 nM
T1 sequence (looked up): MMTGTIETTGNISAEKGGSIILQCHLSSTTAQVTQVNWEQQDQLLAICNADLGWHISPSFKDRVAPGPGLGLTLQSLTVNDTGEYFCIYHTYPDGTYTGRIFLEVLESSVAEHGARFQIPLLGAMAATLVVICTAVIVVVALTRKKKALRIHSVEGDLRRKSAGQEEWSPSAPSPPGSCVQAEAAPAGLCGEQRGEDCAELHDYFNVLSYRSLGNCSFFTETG

TIGIT [12] = target: T1, TIGIT; assay: flow cytometry, MFI ratio to wildtype CD155 ECD-Fc, TIGIT cells
human CTLA-4 (human) [13] = target: human CTLA-4 (human) (UniProt P16410); assay: flow cytometry, CHO cells stably expressing huCTLA4, 33.3 nM, PE anti-human Fc
[14] = target: human CD28, full length, expressed on transfected HEK293 cells (human) (UniProt P10747); assay: flow cytometry, HEK293 cells transfected with human CD28
[15] = target: CD28, endogenously expressed on Jurkat/IL2 reporter cells (human) (UniProt P10747); assay: flow cytometry, Jurkat/IL2 reporter cells (endogenous CD28)
[16] = target: human CD28, endogenous on Jurkat/IL2 reporter cells (human) (UniProt P10747); assay: flow cytometry, Jurkat/IL2 reporter cells (endogenous CD28), PE anti-human Fc
[17] = target: CD28, endogenously expressed on Jurkat/IL2 reporter cells (human) (UniProt P10747); assay: flow cytometry on Jurkat/IL2 reporter cells (endogenous CD28); PE anti-human Fc
[18] = target: human CTLA4 (full-length, expressed on CHO cells) (human) (UniProt P16410); assay: flow cytometry, CHO cells expressing huCTLA4, PE anti-human Fc
Chain of human CTLA4 (full-length, expressed on CHO cells) (human) (P16410 36-223): as the sequence (P16410 36-223) above

[19] = target: CD28, endogenously expressed on Jurkat/IL2 reporter cells (human) (UniProt P10747); assay: flow cytometry, Jurkat/IL2 reporter cells (endogenous CD28), PE anti-human Fc
[20] = target: human CTLA4 (huCTLA4), full-length, stably expressed on CHO cells (human) (UniProt P16410); assay: flow cytometry, CHO cells expressing huCTLA4
Chain of human CTLA4 (huCTLA4), full-length, stably expressed on CHO cells (human) (P16410 36-223): as above

[21] = target: human CTLA4, full-length, expressed on transfected HEK293 (Expi293F) cells (human) (UniProt P16410); assay: flow cytometry, Fc fusion on HEK293 cells transfected with full-length human CTLA4
[22] = target: human PD-L1, full length, expressed on transfected HEK293 cells (human) (UniProt Q9NZQ7); assay: flow cytometry, HEK293 cells transfected with human PD-L1
Chain of human PD-L1, full length, expressed on transfected HEK293 cells (human) (Q9NZQ7 19-290): as the sequence (Q9NZQ7 19-290) above

[23] = target: human PD-L1 on CHO cells (human) (UniProt Q9NZQ7); assay: cell-based or functional assay
Chain of human PD-L1 on CHO cells (human) (Q9NZQ7 19-290): as above

CD112R [24] = target: CD112R (UniProt Q6DKI7); assay: flow cytometry on CD112R-expressing cells
Target sequence in this assay (Q6DKI7 41-326 limits assumed): as the sequence (Q6DKI7 41-326 limits assumed, form in doubt) above

PD-L1 (human) [25] = target: PD-L1 (human) (UniProt Q9NZQ7); assay: flow cytometry on CHO cells stably expressing PD-L1

Chain of human CTLA-4 (human) (P16410 36-223): as the sequence (P16410 36-223) above

Substance: CD112-IgV (from UniProt Q92692 32-158) (Fc fusion)
- MFI at 25 nM (CD226): 824 MFI
- MFI at 25 nM (CD112R [2]): 17800 MFI

Substance: E35D/D46E/M47L/V68M/L85Q/F92L CD80 IgV-Fc (from UniProt P33681 35-141) (Fc fusion)
- MFI at 33.3 nM (CD28 (human)): 15 MFI

Substance: Fc1.1 Control (from UniProt P0DOX5 218-448)
- Relative Luciferase Units (RLU), Jurkat/IL2 + CHO/OKT3/PD-L1 reporter assay, CD80 Conc 5.0 nM [3]: 97 RLU

Substance: Fc only
- MFI at 66.6 nM [4]: 2590 MFI
- MFI at 66.6 nM [5]: 5960 MFI
- MFI at 22.2 nM [6]: 4740 MFI

Substance: PD-L1 A33D/S75P IgV-Fc (first entry) (from UniProt Q9NZQ7 19-132) (Fc fusion)
- Fold increase over wildtype PD-L1 IgV-Fc [7]: 0.1 fold
- MFI at 50 nM [7]: 306

Substance: variant CD80 IgV-Fc A26E/E35D/M47L/L85Q (from UniProt P33681 35-141) (Fc fusion)
- MFI at 66.6 nM [14]: 2270 MFI

Substance: variant CD80 IgV-Fc E35D/D46E/M47L/V68M/T79M/L85M/L97Q (from UniProt P33681 35-141) (Fc fusion)
- MFI at 33.3 nM [15]: 14 MFI

Substance: variant CD80 IgV-Fc E35D/M47L/V68M/E95V/L97Q (from UniProt P33681 35-141) (Fc fusion)
- MFI at 33.3 nM [15]: 14 MFI

Substance: variant CD80 IgV-Fc E35D/Y53H/A71G/D90G/L97R (from UniProt P33681 35-141) (Fc fusion)
- MFI at 33.3 nM [17]: 1550 MFI

Substance: variant CD80 IgV-Fc H18L/V22A/E35D/M47L/N48T/L85Q (from UniProt P33681 35-141) (Fc fusion)
- MFI at 33.3 nM [19]: 434 MFI

Substance: variant CD80 IgV-Fc H18Y/E35D/M38I/M47L/V68M/L85M (from UniProt P33681 35-141) (Fc fusion)
- MFI at 33.3 nM [20]: 139 MFI
- MFI at 33.3 nM [15]: 16.7 MFI

Substance: variant CD80 IgV-Fc K36R/G78A (from UniProt P33681 35-141) (Fc fusion)
- MFI at 66.6 nM [21]: 11900 MFI

Substance: variant CD80 IgV-Fc N55I/T57I/I69F (from UniProt P33681 35-141) (Fc fusion)
- MFI at 66.6 nM [14]: 1900 MFI

Substance: variant CD80 IgV-Fc Q27L/Q33L/E35D/T41S/M47V/N48K/V68M/L85M (from UniProt P33681 35-141) (Fc fusion)
- MFI at 33.3 nM [15]: 15 MFI

Substance: variant CD80 IgV-Fc Q33L/E35D/M47I (from UniProt P33681 35-141) (Fc fusion)
- MFI at 33.3 nM [18]: 15900 MFI

Substance: variant CD80 IgV-Fc Q33L/E35D/M47V/T62S/V68M/L85M (from UniProt P33681 35-141) (Fc fusion)
- MFI at 33.3 nM [15]: 15 MFI

Substance: variant CD80 IgV-Fc Q33R/E35D/M38I/M47L/V68M (from UniProt P33681 35-141) (Fc fusion)
- MFI at 33.3 nM [15]: 15 MFI

Substance: variant CD80 IgV-Fc V22L/E35D/M43L/A71G/D76H (from UniProt P33681 35-141) (Fc fusion)
- MFI at 66.6 nM [14]: 1500 MFI
- MFI at 22.2 nM [22]: 1850 MFI

Substance: variant CD80 IgV-Fc Y31H/E35D/T41S/V68L/K93R/R94W (from UniProt P33681 35-141) (Fc fusion)
- MFI at 66.6 nM [14]: 2450 MFI

Substance: variant CD80 IgV-Fc deltaE10-A98 (Fc fusion)
- Fold Increase over WT CD80-IgV-Fc [23]: 0.3 fold
- Jurkat/IL2 + CHO/OKT3/PD-L1 Reporter Assay: Relative Luciferase Units (RLU), CD80-Fc Conc 5.0 nM [23]: 137 RLU

Substance: variant CD112 IgV-Fc R12W/A46T/K66M/Q79R/N106I/T113A/S118F (from UniProt Q92692 32-158) (Fc fusion)
- MFI at 100 nM (CD112R [24]): 1660 MFI

Substance: wild-type CD80 ECD-Fc (inert), Example 15 (from UniProt P33681 35-242) (Fc fusion)
- RLU, Jurkat/IL2 + CHO/OKT3/PD-L1 Reporter Assay, CD80 Conc 5.0 nM (PD-L1 (human) [8]): 159 RLU
- MFI at 33.3 nM (PD-L1 (human) [25]): 161 MFI

Continued, values first:

- MFI at 33.3 nM (human CTLA-4 (human) [1]): 193 MFI
Substance: CD80 IgV-Fc T13R/Q33R/E35D/M38I/M47L/V68M (from UniProt P33681 35-141) (Fc fusion)

- Jurkat/IL2 + CHO/OKT3/PD-L1 reporter assay, RLU at CD80 Conc 5.0 nM (PD-L1 (human) [8]): 521 RLU
- MFI at 33.3 nM (PD-L1 (human) [9]): 52 MFI
- MFI at 33.3 nM (PD-L1 (human) [10]): 68 MFI
Substance: WT CD80 ECD-Fc (from UniProt P33681 35-242) (Fc fusion)

- MFI at 100 nM (TIGIT [11]): 1960 MFI and 2180 MFI
- Fold ↑ to WT ECD (TIGIT [12]): 0 fold
Substance: Wildtype (CD155 entry without mutations among the variant rows of Table 20B) (from UniProt P15151 21-142) (Fc fusion)

- MFI at 33.3 nM (human CTLA-4 (human) [13]): 125 MFI
- MFI at 33.3 nM (PD-L1 (human) [10]): 45 MFI
- MFI at 33.3 nM (CD28 (human)): 15 MFI
Substance: deltaE10-A98 CD80 IgV-Fc (Fc fusion)

- MFI at 33.3 nM [15]: 15 MFI
Substance: variant CD80 IgV-Fc E24D/E35D/M47L/V68M/E95V/L97Q (from UniProt P33681 35-141) (Fc fusion)

- MFI at 33.3 nM [16]: 1330 MFI
Substance: variant CD80 IgV-Fc E35D/D46E/M47V/N63D/L85Q (from UniProt P33681 35-141) (Fc fusion)

- MFI at 33.3 nM [16]: 1590 MFI
Substance: variant CD80 IgV-Fc E35D/K37E/M47V/N48D/L85Q/D90N (from UniProt P33681 35-141) (Fc fusion)

- MFI at 33.3 nM [17]: 1290 MFI
Substance: variant CD80 IgV-Fc E35D/M42V/M47V/E52D/L85Q (from UniProt P33681 35-141) (Fc fusion)

- MFI at 33.3 nM [18]: 8660 MFI
Substance: variant CD80 IgV-Fc E35D/M47I/K54R/L85E (from UniProt P33681 35-141) (Fc fusion)

- MFI at 33.3 nM [16]: 1440 MFI
Substance: variant CD80 IgV-Fc E35D/M47L/A71G/L85Q (from UniProt P33681 35-141) (Fc fusion)

- MFI at 33.3 nM [18]: 8510 MFI
Substance: variant CD80 IgV-Fc Q33K/E35D/D46V/L85Q (from UniProt P33681 35-141) (Fc fusion)

- MFI at 33.3 nM [17]: 1024 MFI
Substance: variant CD80 IgV-Fc Q33L/E35D/M43I/Y53F/T62S/L85Q (from UniProt P33681 35-141) (Fc fusion)

- MFI at 33.3 nM [19]: 433 MFI
Substance: variant CD80 IgV-Fc Q33L/E35D/T41S/M43I (from UniProt P33681 35-141) (Fc fusion)

- MFI at 33.3 nM [18]: 14500 MFI
Substance: variant CD80 IgV-Fc Q33L/E35D/T41S/M47V (from UniProt P33681 35-141) (Fc fusion)

- MFI at 33.3 nM [15]: 16 MFI
Substance: variant CD80 IgV-Fc R29C/E35D/M47L/V68M/A71G/L85M (from UniProt P33681 35-141) (Fc fusion)

- MFI at 22.2 nM [22]: 1870 MFI
Substance: variant CD80 IgV-Fc T13R/M42V/M47I/A71D (from UniProt P33681 35-141) (Fc fusion)

- MFI at 22.2 nM [22]: 3550 MFI
Substance: variant CD80 IgV-Fc V20I/A71D (from UniProt P33681 35-141) (Fc fusion)

- MFI at 22.2 nM [22]: 1400 MFI
Substance: variant CD80 IgV-Fc V22L/E35G/A71D/L72P (from UniProt P33681 35-141) (Fc fusion)
